In the RNAGym collection of RNA variant scans (doi:10.1073/pnas.2313332121):
Variants at the floor of the assay were thinned out.

B1: TPR 5TU (parent)
chain: GGAUCUUCUCGAUCUAACAAAAAAGACAAAUCUGCCACAAAGCUUGAGAGCAUCUUCGGAUGCAGAGGCGGCAGCCUUCGGUGGCGCGAUAGCGCCAACGUUCUCAACUAUGACACGCAAAACGCGUGCUCCGUUGAAUGGAGUUUAUCAUG

Variants of: B1
Experiment: polymerase ribozyme fitness, log enrichment relative to wild type (log ratio); higher = more active; in vitro selection for triplet polymerase activity
Outline: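 Mutant libraries of both subunits of a heterodimeric triplet polymerase ribozyme were PCR-built, transcribed, and selected once in triplicate, with frozen incubation at −7 °C and capture of gel-excised extended constructs on streptavidin beads before RT-PCR. Illumina sequencing of input and output libraries was filtered to genotypes with ≥10 input reads and ≥1 read per output. Fitness is the logarithm of genotype enrichment over wild-type enrichment, using inverse-variance-weighted replicate averages. The logarithm is base 2.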

Row | Variant | polymerase ribozyme fitness (log ratio)
1 | C96U U104G | -1.59
2 | C118G A142G | -1.54
3 | C96U C125A | -0.0844
4 | C96U C125U | -0.382
5 | G117U U135C | -2.36
6 | A107C A142C | -4.05
7 | A106G A120U A121G A122G G143C | -2.43
8 | U109G A115U C125A | -4.05
9 | C96U A98G | -1.3
10 | C96U G124A A147U | 0.911
11 | U109G C125U C129U | -4.06
12 | G94U | 1.12
13 | C103A A107C A142C | ≤ -4.2
14 | G94U C125U G143U | -4.16
15 | A97G U101G | 0.358
16 | C99A U135A | -2.77
17 | A107G A121U | -4.18
18 | C95U C118U | -1.09
19 | C105A C129G | ≤ -4.2
20 | C105G G141C | -2.56
21 | C105U U135A | 0.0587
22 | C103G C123G G136U | -2.77
23 | G94C G100C C131U G133C C149G | ≤ -4.2
24 | C116A G140U | -4.02

Row | Variant | polymerase ribozyme fitness (log ratio)
25 | U104G A120C | 0.532
26 | G117U | -0.0156
27 | G117C | 0.422
28 | G117A | 0.231
29 | C95U U130G | -2.55
30 | A121G G143A A147U | -1.46
31 | C96A A122C U139G A150C | -3.67
32 | C105A C125A | -3.83
33 | C95U U102G C105U | -2.98
34 | A98U C118U U144G | 0.244
35 | U101A A115U G141A | -2.17
36 | A98U C105A A119G A121C | -0.491
37 | G94C U151A | -3.85
38 | C105U G140A | -2.92
39 | A121G U127C | -2.42
40 | C96U U146C | -0.67
41 | A115U C118A | -1.83
42 | C95U G124C | -0.723
43 | C96U A119U | -0.778
44 | A98G U127G G141A | ≤ -4.2
45 | A106G A113U U135G | ≤ -4.2
46 | C99A U146G | -1.41
47 | C99A U146A | -1.15
48 | G94C A115U | -2.98

Row | Variant | polymerase ribozyme fitness (log ratio)
49 | A107U C118G A147U C149G U151G | ≤ -4.2
50 | C96A U146A U148A | -4.17
51 | A98U A150C | -2.82
52 | A110G U134G | -4.07
53 | G94U A98U C99G A147G | -3.16
54 | C105U A106C | 0.388
55 | G94C A137C C149U | -3.76
56 | C114G G124C | -4.13
57 | A107G G140U U151A | ≤ -4.2
58 | C116A A142C | -3.92
59 | C96G A120G | -2
60 | C96G A120C | 0.168
61 | C105A G140U | -4.11
62 | C103U U134A | -2.39
63 | A98U G136U | -2.64
64 | C96A C116U | -0.662
65 | C99U A115C | -1.19
66 | C99U A107G | -4.16
67 | C99U A107U | -3.88
68 | A107U U109G | ≤ -4.2
69 | C99G C116U | -0.76
70 | C96G A137U | -4
71 | A110G C149G | -3.83
72 | A107U U135C | -4.04

Row | Variant | polymerase ribozyme fitness (log ratio)
73 | G94C C96U G136A G140A | ≤ -4.2
74 | A106U U135A A150U | -1.22
75 | U101G G128U U144G | -4
76 | C103U | -0.357
77 | C103G | -1.4
78 | C103A | -1.23
79 | C103A U146C | -1.49
80 | C96G A122U | -1.49
81 | A122G U139C | -4.09
82 | C96U G128U U146C | -3.35
83 | C96G C116A A138C A147C | -3.36
84 | A119U G126A | 0.174
85 | A119U U134A | -2.99
86 | A115C G124U U144G | -3.11
87 | C95U C96U C118U C125A C129G | ≤ -4.2
88 | C96U A122G | -0.14
89 | C96U A122C | -0.314
90 | U102G C116G | -1.67
91 | A107G G143U | -3.81
92 | A113U G117U | -2.07
93 | C96G U130C | 0.873
94 | A121G | -0.0563
95 | A121C | 0.117
96 | A121U | -0.0614

Row | Variant | polymerase ribozyme fitness (log ratio)
97 | A97U C132A | -2.65
98 | C103G A115C A137G C149G | ≤ -4.2
99 | C99G A107C G143C | ≤ -4.2
100 | A115G U146A | -1.38
101 | U102G G152U | ≤ -4.2
102 | A110C G136U | ≤ -4.2
103 | C105U A120G A122C | 0.479
104 | C99G C108A A110G | ≤ -4.2
105 | C99A C131G | ≤ -4.2
106 | C95U A119U | -0.544
107 | C95U A119G | 0.353
108 | A113C U148C | -3.73
109 | A97C C103G C114G | -3.86
110 | A115U G136A | -1.18
111 | C103A A107U U134A | ≤ -4.2
112 | U102A | -0.854
113 | U102C | -0.787
114 | U102G | -2.51
115 | A121G A122C A137C | -4.06
116 | C96G U146C | -1.45
117 | C95U C99A G117U U148A | ≤ -4.2
118 | C95U C116G G133U | ≤ -4.2
119 | G100A A107U | ≤ -4.2
120 | C108U C114U | -4.06

Row | Variant | polymerase ribozyme fitness (log ratio)
121 | G94U C108U | -3.54
122 | A98U A120U G143C | -2.39
123 | C96U C132A | -1.63
124 | A98G A107U | -3.24
125 | C99U U144A | -1.02
126 | U101G G133U | -2.8
127 | C105U G124U | -0.374
128 | G100U | -2.58
129 | G100A | -3.76
130 | G100C | -3.72
131 | C116U U151C | -4.04
132 | C96G G112A | -4.07
133 | G124U | -0.432
134 | G124C | -0.922
135 | G124A | -0.246
136 | C96G A142G U145G A147U | -2.85
137 | A119G C125A | 0.204
138 | C99A G143A | -2.02
139 | G94C C105G C116A | -2.89
140 | U102A A113C | -3.86
141 | C123A C132G | -3.17
142 | C96A C116U G136U A150G | -4.06
143 | A119U U139C | -3.94
144 | U104C G124U C125A G143U | -3.85

Row | Variant | polymerase ribozyme fitness (log ratio)
145 | A98U U127G | -3.18
146 | G94U C95A G152A | -3.85
147 | C99U U145G | -2.09
148 | A97C A119G | 0.72
149 | U102G U127C | -4.17
150 | C95U C132A | -2.32
151 | C118U A120G G143C | -2.13
152 | C96A A98U C103G U109A A121U | ≤ -4.2
153 | C108A A121U | ≤ -4.2
154 | U102C C131U U134G | -4.13
155 | C108U G133U | -3.96
156 | G94C G133A | -4.02
157 | C96A G140U | -3.47
158 | C108G G143C A147C | ≤ -4.2
159 | C105A U135C | -2.39
160 | C96U C114U A150U | -3.94
161 | C99G A113C U135C | ≤ -4.2
162 | C95U C96A | -1.02
163 | C114A G140A U148G | ≤ -4.2
164 | G94C G100U | -3.69
165 | A107G G141A | -2.72
166 | A107G G141C | -3.86
167 | U109G A110C | ≤ -4.2
